Results published in patent US20190309072A1 (CYTOMX THERAPEUTICS, published 2019).

Key:
[1] = target: T1, human ITGa3 on human-derived cell lines (human, UniProt P26006 33-1051); experiment: FACS on FaDu cells; apparent Kd from binding curve
T1 construct: whole, on cells; also called ITGa3 on H292 cells
T1 sequence (looked up): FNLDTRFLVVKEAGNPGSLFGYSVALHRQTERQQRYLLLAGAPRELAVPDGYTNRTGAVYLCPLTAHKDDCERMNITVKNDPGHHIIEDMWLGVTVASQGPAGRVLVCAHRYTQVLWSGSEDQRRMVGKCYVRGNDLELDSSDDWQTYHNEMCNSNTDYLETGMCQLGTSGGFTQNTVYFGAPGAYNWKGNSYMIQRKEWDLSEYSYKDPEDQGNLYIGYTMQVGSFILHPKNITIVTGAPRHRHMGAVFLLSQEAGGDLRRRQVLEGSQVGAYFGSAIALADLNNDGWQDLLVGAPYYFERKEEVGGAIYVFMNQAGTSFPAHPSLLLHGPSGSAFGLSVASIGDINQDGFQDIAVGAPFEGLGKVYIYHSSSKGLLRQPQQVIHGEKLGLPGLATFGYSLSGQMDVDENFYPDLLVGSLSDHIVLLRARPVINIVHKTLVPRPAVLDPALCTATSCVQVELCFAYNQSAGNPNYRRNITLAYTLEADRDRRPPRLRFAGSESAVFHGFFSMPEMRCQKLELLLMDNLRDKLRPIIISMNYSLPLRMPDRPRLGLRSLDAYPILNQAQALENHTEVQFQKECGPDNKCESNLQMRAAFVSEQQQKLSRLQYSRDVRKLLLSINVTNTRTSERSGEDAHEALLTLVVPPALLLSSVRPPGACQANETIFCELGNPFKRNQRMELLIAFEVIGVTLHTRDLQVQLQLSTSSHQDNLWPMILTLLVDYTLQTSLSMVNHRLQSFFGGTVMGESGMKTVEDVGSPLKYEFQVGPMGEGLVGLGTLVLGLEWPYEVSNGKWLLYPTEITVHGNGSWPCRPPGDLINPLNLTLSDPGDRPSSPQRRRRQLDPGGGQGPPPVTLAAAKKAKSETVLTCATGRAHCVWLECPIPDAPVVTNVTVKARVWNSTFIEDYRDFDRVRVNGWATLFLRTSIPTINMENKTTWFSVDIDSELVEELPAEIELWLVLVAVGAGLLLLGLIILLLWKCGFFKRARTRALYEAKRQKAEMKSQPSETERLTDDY
Protocol: (§1) In this study, the binding of the antibodies of the present disclosure to the indicated cell lines were performed using a standard FACS labelling method.

[2] = target: T1, human ITGa3 on human-derived cell lines; experiment: FACS on HT29 cells; apparent Kd from binding curve
Protocol: as §1

[3] = target: T1, human ITGa3 on human-derived cell lines; experiment: FACS on BxPC3 cells; apparent Kd from binding curve
Protocol: as §1

[4] = target: T1, human ITGa3 on human-derived cell lines; experiment: FACS on MDA MB231 cells; apparent Kd from binding curve
Protocol: as §1

[5] = target: T2, mouse ITGa3 on mouse-derived Renca renal carcinoma cells (mouse, UniProt Q62470 33-1053); experiment: FACS on Renca cells; goat anti-human IgG Alexa Fluor 647 secondary
T2 construct: whole, on cells
T2 sequence (looked up): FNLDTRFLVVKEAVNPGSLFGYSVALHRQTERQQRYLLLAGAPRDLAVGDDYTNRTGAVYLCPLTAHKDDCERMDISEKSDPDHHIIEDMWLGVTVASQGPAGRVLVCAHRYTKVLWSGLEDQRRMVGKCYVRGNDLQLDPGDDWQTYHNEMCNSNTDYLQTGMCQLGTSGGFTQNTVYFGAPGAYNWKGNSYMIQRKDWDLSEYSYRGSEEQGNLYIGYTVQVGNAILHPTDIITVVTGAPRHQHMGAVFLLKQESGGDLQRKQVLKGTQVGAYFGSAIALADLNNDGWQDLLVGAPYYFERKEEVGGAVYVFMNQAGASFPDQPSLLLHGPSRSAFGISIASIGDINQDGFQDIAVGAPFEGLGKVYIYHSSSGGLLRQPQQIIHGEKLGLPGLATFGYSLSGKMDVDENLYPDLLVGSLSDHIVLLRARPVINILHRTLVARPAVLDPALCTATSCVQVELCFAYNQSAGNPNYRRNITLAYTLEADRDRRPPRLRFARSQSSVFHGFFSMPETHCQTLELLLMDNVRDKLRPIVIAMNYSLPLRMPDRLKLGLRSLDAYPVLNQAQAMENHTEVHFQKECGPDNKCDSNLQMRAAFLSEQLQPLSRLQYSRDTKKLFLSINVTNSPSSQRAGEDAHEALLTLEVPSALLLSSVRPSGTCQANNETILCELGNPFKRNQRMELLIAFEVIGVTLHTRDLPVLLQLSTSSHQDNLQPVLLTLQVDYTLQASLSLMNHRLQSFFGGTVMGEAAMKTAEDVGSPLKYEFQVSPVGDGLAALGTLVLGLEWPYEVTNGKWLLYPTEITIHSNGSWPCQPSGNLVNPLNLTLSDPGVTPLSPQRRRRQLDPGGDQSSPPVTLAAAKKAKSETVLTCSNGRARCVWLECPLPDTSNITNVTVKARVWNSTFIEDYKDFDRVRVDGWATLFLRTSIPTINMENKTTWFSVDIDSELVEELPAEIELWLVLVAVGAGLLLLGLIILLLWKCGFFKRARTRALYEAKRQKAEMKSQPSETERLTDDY

[6] = target: T1, human ITGa3 on human-derived cell lines; experiment: FACS on MDA MB 231 cells (FIG. 17B); apparent Kd from binding curve
Protocol: In this study, the binding of the antibodies of the present disclosure to the indicated cell lines were performed using a standard FACS labelling method. Briefly, in FIG. 17A cells were labeled with the indicated antibodies of the present disclosure: anti-human ITGa3 antibody drug conjugate (anti-ITGa3 huVM2 Hc2/Lc1-spdb-DM4, “ITGa-DM4”) or an anti-human ITGa3 activatable antibody drug conjugate (anti-ITGA3 Hc2-570-2001-spdb-DM4, “ITGA3-570-2001-DM4”), where the anti-ITGa3 AADC was used with and without activation by a protease that recognized the substrate sequence. In FIG. 17B cells were labeled with the indicated antibodies of the present disclosure: anti-human ITGa3 antibody (anti-ITGa3 huVM2 Hc2T62G/Lc1 antibody, “ITGa3 Ab”) or an anti-human ITGa3 activatable antibody (anti-ITGA3 Hc2T62G-570-2001, “ITGA3-570-2001; anti-ITGA3 Hc2T62G-2331-3001, “ITGA3-2331-3001”) and their corresponding AADCs conjugated to vc-MMAD at the indicated concentrations and subsequently detected with an Alexa Fluor 647 labeled goat anti-human IgG secondary antibody.

[7] = target: T1, human ITGa3 on human-derived cell lines; experiment: FACS on H292 cells; goat anti-human IgG Alexa Fluor 647 secondary; used for comparison
Protocol: […], the binding of activatable anti-ITGa3 antibodies of the present disclosure comprising the VH of SEQ ID NO: 7, a VL selected from the VL of SEQ ID NO: 11 and the VL of SEQ ID NO: 12, with a masking moiety selected from the 570 masking moiety (SEQ ID NO: 22) and the 574 masking moiety (SEQ ID NO: 26), and the CM1 substrate comprising the sequence […] (SEQ ID NO: 232) to the H292 cell line was evaluated using a cell-binding FACS assay. The VM2 chimera (VH of SEQ ID NO: 1 and VL of SEQ ID NO: 2) was used for comparison. Using a standard labeling protocol for FACS, cells were labeled with anti-ITGa3 antibody or anti-ITGa3 activatable antibody of the present disclosure at the indicated concentrations, and the bound antibody was detected with a goat anti-human IgG Alexa Fluor 647 secondary antibody.

[8] = target: T1, human ITGa3 on human-derived cell lines; experiment: FACS on FaDu cells; shift of the ActAb Kd against the ITGa3 Ab Kd
Protocol: as §1

[9] = target: T1, human ITGa3 on human-derived cell lines; experiment: FACS on HT29 cells; shift of the ActAb Kd against the ITGa3 Ab Kd
Protocol: as §1

[10] = target: T1, human ITGa3 on human-derived cell lines; experiment: FACS on BxPC3 cells; shift of the ActAb Kd against the ITGa3 Ab Kd
Protocol: as §1

[11] = target: T1, human ITGa3 on human-derived cell lines; experiment: FACS on MDA MB231 cells; shift of the ActAb Kd against the ITGa3 Ab Kd
Protocol: as §1

B1: anti-ITGa3 huVM2 Hc2T62G/Lc1 antibody (antibody, human IgG1, kappa)
heavy: not shown
light: DIQMTQSPSSLSASVGDRVTITCSASSSISSNYLHWYQQKPGKVPKLLIYRTSNLASGVPSRFSGSGSGTDYTLTISSLQPEDVATYYCQQGSSIPRFTSGGGTKVEIKRTVAAPSVFIFPPSDEQLKSGTASVVCLLNNFYPREAKVQWKVDNALQSGNSQESVTEQDSKDSTYSLSSTLTLSKADYEKHKVYACEVTHQGLSSPVTKSFNRGEC
notes: also called ITGa3 Ab; ITGA3-Ab
- Kd [1]: 0.32 nM
- Kd [2]: 0.24 nM
- Kd [3]: 0.77 nM
- Kd [4]: 0.91 nM
- binding result [5]: no binding
- Kd [6]: 0.906 nM

B2: anti-ITGa3 huVM2 Hc2T62G/Lc1 antibody conjugated to vc-MMAD (antibody, human IgG1, kappa)
heavy: not shown
light: B1 light
modifications: vc-MMAD conjugated to the antibody; chain and residues of attachment not stated
notes: Antibody drug conjugate of m29; also called ITGa3 Ab-MMAD; huVM2 Hc2T62G-MMAD ADC
- Kd [6]: 1.08 nM

B3: VM2 chimera (antibody, V domains shown)
VH: EVQLQESGAELVKPGTSVRLSCKASGYTFTEYIIHWVKQRSGQGLEWIGWFYPESGSVKYNETFKGRATLTADKSSSTVYMELSRLTSEDSAVYFCARHEERDYYGYYAMDYWGQGTSVTVSS
VL: DIVMTQTPTTLAASPGEKIIITCSASSSISSNYLHWYQQKPGFSPKLLIYRTSNLASGVPARFSGSGSGTSYSLTIGTMEAEDVATYYCQQGSSIPRFTSGSGTKLEIK
notes: Chimera of the mouse VM2 variable domains; also called VM2 chimera anti-ITGa3 antibody
- binding result [7]: binds

B4: anti-ITGA3 Hc2T62G-570-2001 (antibody)
heavy: not shown
light: QGQSGQGECKTRQDFEMHDCVYGGGSSGGSISSGLLSGRSDNHGGGSDIQMTQSPSSLSASVGDRVTITCSASSSISSNYLHWYQQKPGKVPKLLIYRTSNLASGVPSRFSGSGSGTDYTLTISSLQPEDVATYYCQQGSSIPRFTSGGGTKVEIKRTVAAPSVFIFPPSDEQLKSGTASVVCLLNNFYPREAKVQWKVDNALQSGNSQESVTEQDSKDSTYSLSSTLTLSKADYEKHKVYACEVTHQGLSSPVTKSFNRGEC
notes: also called ITGa3-ActAb; ITGa3 ActAb
- Kd [1]: 4.58 nM
- Kd [2]: 6.03 nM
- Kd [3]: 7.39 nM
- Kd [4]: 7.42 nM
- Apparent Masking Efficiency [8]: 14 fold
- Apparent Masking Efficiency [9]: 25 fold
- Apparent Masking Efficiency [10]: 10 fold
- Kd [6]: 18 nM
- Apparent Masking Efficiency [11]: 8 fold

B5: anti-ITGA3 Hc2T62G-570-2001 conjugated to vc-MMAD (antibody, human IgG1, kappa)
heavy: not shown
light: B4 light
modifications: vc-MMAD conjugated to the antibody; chain and residues of attachment not stated
notes: also called ITGa3 570-2001-MMAD; ITGa3-570-2001-MMAD
- Kd [6]: 17.5 nM
